Assay results published in patent publication US20230357323A1, “HUMAN IL23 RECEPTOR BINDING POLYPEPTIDES” (University of Washington, priority 2020, published 2023).
Like-named read-outs stand apart in the source and are kept apart here.

Key:
[1] = target: T1, IL-23R (Homo sapiens, UniProt Q5VWK5); test: IL-23-mediated cell signaling assay (Promega IL-23 Bioassay luciferase reporter cells); assay type: cell-based; settings: IL-23 reporter assay; C-terminal versus N-terminal 6-histidine tag
T1 sequence (Q5VWK5 24-629): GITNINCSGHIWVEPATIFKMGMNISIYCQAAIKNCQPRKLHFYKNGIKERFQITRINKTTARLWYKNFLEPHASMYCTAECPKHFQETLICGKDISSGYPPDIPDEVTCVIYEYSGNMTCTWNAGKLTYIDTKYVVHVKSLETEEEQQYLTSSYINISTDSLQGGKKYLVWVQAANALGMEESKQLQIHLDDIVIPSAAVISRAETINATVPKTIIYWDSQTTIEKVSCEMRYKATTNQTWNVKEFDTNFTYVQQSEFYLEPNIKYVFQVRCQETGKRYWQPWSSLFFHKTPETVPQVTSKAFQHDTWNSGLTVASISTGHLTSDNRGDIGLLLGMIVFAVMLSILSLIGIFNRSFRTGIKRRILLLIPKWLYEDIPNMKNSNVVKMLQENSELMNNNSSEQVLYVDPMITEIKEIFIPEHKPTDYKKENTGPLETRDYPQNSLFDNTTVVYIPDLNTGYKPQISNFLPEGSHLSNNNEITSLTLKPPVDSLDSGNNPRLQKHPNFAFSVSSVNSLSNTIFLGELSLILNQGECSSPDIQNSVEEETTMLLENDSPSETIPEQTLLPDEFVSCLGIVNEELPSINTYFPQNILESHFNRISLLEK
Description: FIG. 7. Designed IL-23R inhibitor block IL-23-mediated cell signaling in vitro. Cells engineered to express luciferase downstream of IL-23R (Promega) were pre-incubated for 30 minutes with a titration of each inhibitor, then stimulated with 8 ng/mL human IL-23 cytokine for 6 hours. Luciferase substrate was added, luminescence read, and % inhibition of signaling calculated relative to wells with no inhibitor added. IC50 was calculated using linear regression to fit dose response; values are shown above alongside fold increase in potency relative to a competitor molecule PTG compound C.
Next, we assessed the ability of IL-23R inhibitors to block IL-23-mediated cell signaling. […] IC50 values were determined using linear regression to fit dose response.
Commercial IL-23 reporter cells (Promega IL-23 Bioassay) expressing luciferase downstream of IL-23R were used to assess inhibition of IL-23-mediated cell signaling. Cells were plated in the inner wells of 96-well tissue culture treated white plates suitable for reading luminescence. Cells were pre-incubated for 30 minutes with a dilution series of each inhibitor, then treated with the EC80 stimulatory concentration of recombinant human IL-23 cytokine determined in preceding experiments (8 ng/mL; R&D 1290-IL). After 6 hours incubation with human IL-23, luciferase substrate was added and luminescence read. […]

[2] = target: T1, IL-23R; test: Surface plasmon resonance (SPR) binding affinity to hIL-23R; design: his tag (C); purchased
[3] = Proteolytic stability in simulated intestinal fluid (SIF), SDS PAGE; assay type: in vitro ADME; settings: for SIF t1/2: pH 6.5
Source text: (§1) While resistance to high heat is important for manufacturing and storage, and resistance to chemical denaturant is a good proxy for stability overall, any oral, gut-restricted IL-23R inhibitor will preferably survive the harsh conditions of the gastrointestinal tract, including high acidity and physiological proteases, to reach the site of action intact. To determine feasibility of oral administration, we therefore more directly assessed the stability of our designed IL-23R inhibitors in simulated gastric fluid (SGF), including the protease pepsin at pH 2, and simulated intestinal fluid (SIF), including proteases trypsin and chymotrypsin at pH 6.5. Proteolysis was assessed qualitatively by SDS PAGE at timepoints up to 24 hours.
Several reported formulations of simulated intestinal fluid show variable proteolytic activity, and protease activity of human intestinal fluid has not been thoroughly studied. Therefore, as a benchmark for SIF stability, we directly compared our designs to V565-38F, an oral, gut-restricted nanobody inhibitor of TNFa currently in a phase 2 clinical trial for Crohn's disease, in SIF with enzyme concentrations sufficient to degrade this molecule over 24 hours. Design variants with proteolytic stability greater than or equal to V565-38F are likely to be sufficiently stable to enable oral therapy.
(§2) Simulated intestinal fluid (SIF) was prepared as recommended by Jantratid et al. (termed FaSSIFv2) with the addition of proteases trypsin and chymotrypsin each at 30 μg/mL.^18 This composition is denoted as “1x SIF” in the text. In some instances, designed proteins (pure recombinant protein, or yeast libraries as above) or the comparator V565-38F were so stable that minimal degradation could be detected at the maximum duration (24 hours for SDS PAGE experiments, 90 minutes for cytometry experiments). Therefore, we increased the concentrations of both trypsin and chymotrypsin to increase the rate of digestion; these solutions are denoted as “#x SIF”, where for example “2x SIP” denotes a 2-fold increase in concentration of both trypsin and chymotrypsin (to 60 μg/mL), Simulated gastric fluid was prepared as follows: 600 ug/mL pepsin and 34.2 mM NaCl in water, with […] added to adjust pH to 2.
For qualitative assessment of proteolytic stability, pure recombinant proteins were digested at 37° C. for 24 hours and proteolytic cleavage assessed by SDS PAGE. From concentrated stock solutions, recombinant proteins were added to stock SGF and SIF solutions to a final concentration of 0.1 mg/mL. Timepoints were taken at 0, 5, 15, 30, 60 minutes, 4 and 24 hours; at each timepoint, samples were removed and immediately mixed with load dye and boiled for 5 minutes at 95° C. to quench protease activity. 5 ug protein (based on initial digest concentration of 0.1 mg/mL) per timepoint were run on 16% Tris-tricine polyacrylamide gels.

[4] = target: T2, human IL-23R (hIL-23R) (Homo sapiens, UniProt Q5VWK5); test: Biolayer interferometry (BLI) binding to hIL-23R; settings: biolayer interferometry binding titrations; read-out: affinity (KD) for hIL-23R
T2 construct: his tag (C); purchased
T2 sequence (Q5VWK5 24-629): T1 sequence (Q5VWK5 24-629)
Source text: Two designs, 23R_A (SEQ ID NO:10) and 23R_B (SEQ ID NO:110), were highly enriched in the final selection pool and were chosen for further biochemical characterization. Both designs are 3-helix bundles (54 and 53 residues, respectively) which incorporate the native Trp hotspot at the N-terminal end of a helix such that IL-23R residue D118 forms a helix-capping hydrogen bond with the Trp hotspot's free backbone amine, similar to the αD helix of p19 (FIG. 1D). In both designs, this central binding helix has a larger interaction surface with hIL-23R, mediated by additional de novo hotspots, than p19. […]
Variants were first screened for relative binding to hIL-23R with biolayer interferometry (BLI). hIL-23R was immobilized on the BLI sensor tips and binding to each variant in solution at a constant concentration (50 nM) was measured to qualitatively determine relative performance of the variants. For the best-performing variants, binding constants (KD, including kon, and koff) were quantitatively determined with BLI titration experiments in triplicate. […]
Qualitative and quantitative assessment of binding affinity was performed using biolayer interferometry (ForteBio Octet™ […] and associated software for analysis). […] Kinetic constants were determined from the mathematical fit of a 1:1 binding model.

[5] = Proteolytic stability in simulated gastric fluid (SGF), SDS PAGE; assay type: in vitro ADME
Source text: as §1, §2
For qualitative assessment of proteolytic stability, pure recombinant proteins were digested at 37° C. for 24 hours and proteolytic cleavage assessed by SDS PAGE. From concentrated stock solutions, recombinant proteins were added to stock SGF and SIF solutions to a final concentration of 0.1 mg/mL. […]

[6] = trypsin and chymotrypsin, 37° C., SDS PAGE

For “PLWQVFYLLNTCIKRTGDPTCKKLAKALRECLKKGDLKACNELADKAVKYINS [B04dslf02IB]”, the “effect of C-terminal 6-histidine tag on potency” value [1] was “no effect on potency”, the Kd [2] was less than 0.001 nM and the “effect of C-terminal 6-histidine tag on proteolytic stability” value ([3]; SGF or SIF up to 24 hours, C-terminal versus N-terminal 6-histidine tag) was “greatly enhances the proteolytic stability”. The “SIF t1/2” value [3, 6] was 30 to 60 min.
For “MEPEKYLRELCKKYYEGKLSQQEAVEEIRKYARKKGLEAWKLVWYFMQCVKRDI [rA11dslf02]”, the “SIF t1/2” value ([3]; simulated gi fluid) was 60 min.
“IL-23 cytokine: native ligand; heterodimeric cytokine composed of the p19 subunit and the p40 subunit” showed a Kd [4] of 1.7 nM.
For “mB09dslf01-T48I: best mIL-23R inhibitor after optimization for stability and mIL-23R affinity; T48I variant of mB09dslf01; no SEQ ID given (NLWQIFYCLLTCIKRTGDPTCKKLLKALQEAVKKNDEKAVKELAKKAIKYCRSHHHHHH)”, the “stability in SGF compared to V565-38F” value [5] was “more stable”, the “SGF t1/2” value ([5]; simulated gi fluid, pH 2) was “greater than 24 hours” and the “3x SIF t1/2” value ([3]; simulated gi fluid) was “greater than 24 hours”.
In the case of “NLWQIFYLLNTCIKRTGDPTCKKLKKALRECEKKGDEKACKELAKKAMKYIRS (NLWQIFYLLNTCIKRTGDPTCKKLKKALRECLKKGDEKACKELAKKAMKYIRS) [B04dslf02]”, the “SIF t1/2” value [3, 6] is reported as 5 to 15 min.
For “PEPEKYLQELCKKYYEGKLSQQEAVEEIRKYARKWGLEAWKLVWYFMQCVKRDI [rA11dslf02_M1P_R8Q_K35W]”, the “stability in SGF compared to V565-38F” value ([5]; SGF) was “much more stable”, the Kd [2] was 0.075 nM and the “stability in SIF compared to V565-38F” value ([3]; SIF with enzyme concentrations sufficient to degrade V565-38F over 24 hours (3x SIF)) was “similarly stable”. For the same substance, the “SIF t1/2” value [3, 6] was 240 to 1440 min.
